In paper PMC8960383, “A Nanobody-Based Toolset to Monitor and Modify the Mitochondrial GTPase Miro1” (Frontiers in Molecular Biosciences, 2022):
Values belong to the binder of their own block, whether it stands above or below them.

Key:
eGFP-cGTPase-TMD [1] = target: T1, eGFP-cGTPase-TMD (Homo sapiens, UniProt Q8IXI2); experiment: pull-down; Nbs coupled to NHS-Sepharose (nanotraps) incubated 16 h at 4°C with the soluble fraction of HEK293 cells transiently expressing GFP-Miro1, GFP-tagged Miro1 deletion constructs or GFP (lysis buffer with 1% Triton X-100); immunoblot of bound fractions with anti-GFP and anti-GAPDH; settings: one partner purified
T1 construct: human Miro1 isoform 1 (UniProtKB Q8IXI2-1), C-terminal GTPase domain with the transmembrane domain; made from the GFP-Miro1 plasmid by site directed mutagenesis; also called C-terminal GTPase domain of Miro1; source: HEK293, transfected, in lysate; HeLa, transfected, in living cells; not shown: GFP, N-terminal, kept
T1 sequence (Q8IXI2 whole entry, looked up, the tested form may be a part, canonical isoform): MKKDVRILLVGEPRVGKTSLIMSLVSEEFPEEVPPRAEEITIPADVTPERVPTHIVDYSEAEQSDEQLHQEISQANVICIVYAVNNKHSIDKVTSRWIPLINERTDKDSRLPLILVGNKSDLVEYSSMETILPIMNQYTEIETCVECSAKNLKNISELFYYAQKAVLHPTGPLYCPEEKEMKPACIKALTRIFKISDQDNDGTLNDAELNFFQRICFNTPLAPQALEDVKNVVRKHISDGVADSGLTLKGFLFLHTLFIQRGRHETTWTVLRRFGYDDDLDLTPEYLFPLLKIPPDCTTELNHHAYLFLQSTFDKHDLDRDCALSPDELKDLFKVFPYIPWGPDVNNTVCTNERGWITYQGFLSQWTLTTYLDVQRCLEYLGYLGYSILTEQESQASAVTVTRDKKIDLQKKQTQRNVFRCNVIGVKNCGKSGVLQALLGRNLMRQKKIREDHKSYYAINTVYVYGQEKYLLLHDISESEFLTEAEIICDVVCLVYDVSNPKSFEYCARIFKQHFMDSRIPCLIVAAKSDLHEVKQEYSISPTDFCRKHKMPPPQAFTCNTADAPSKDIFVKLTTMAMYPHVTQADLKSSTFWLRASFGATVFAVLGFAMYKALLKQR

eGFP-cGTPase-TMD [2] = target: T1, eGFP-cGTPase-TMD; experiment: live-cell fluorescence imaging (relocalisation of the chromobody); TagRFP chromobodies transiently co-expressed with GFP-Miro1 or GFP-tagged Miro1 deletion constructs in HeLa cells; settings: partners not purified
GFP-Miro1 (human) = GFP-Miro1 (human) (UniProt Q8IXI2)
GFP-Miro1 (human), sequence (Q8IXI2 whole entry): as the sequence (Q8IXI2 whole entry, looked up, the tested form may be a part, canonical isoform) above

[3] = target: endogenous Miro1 (human (endogenous in HEK293 and HeLa)) (UniProt Q8IXI2)
endogenous Miro1 (human (endogenous in HEK293 and HeLa)), sequence (Q8IXI2 whole entry, canonical isoform): as the sequence (Q8IXI2 whole entry, looked up, the tested form may be a part, canonical isoform) above

Miro1 isoform 2 = target: T2, Miro1 isoform 2 (Homo sapiens (endogenous, HEK293), UniProt Q8IXI2-2); experiment: affinity purification with mass spectrometry; mono- and bivalent M41 and M114 nanotraps incubated with HEK293 lysate, compared to control nanotraps; three technical replicates; label-free quantification, iBAQ; settings: one partner purified
T2 construct: endogenous human Miro1 isoform 2, identified by mass spectrometry (search against the Uniprot Homo sapiens database; one unique peptide); source: endogenous, HEK293 lysate
T2 sequence (Q8IXI2 other isoform, or with tags, fused parts or gaps): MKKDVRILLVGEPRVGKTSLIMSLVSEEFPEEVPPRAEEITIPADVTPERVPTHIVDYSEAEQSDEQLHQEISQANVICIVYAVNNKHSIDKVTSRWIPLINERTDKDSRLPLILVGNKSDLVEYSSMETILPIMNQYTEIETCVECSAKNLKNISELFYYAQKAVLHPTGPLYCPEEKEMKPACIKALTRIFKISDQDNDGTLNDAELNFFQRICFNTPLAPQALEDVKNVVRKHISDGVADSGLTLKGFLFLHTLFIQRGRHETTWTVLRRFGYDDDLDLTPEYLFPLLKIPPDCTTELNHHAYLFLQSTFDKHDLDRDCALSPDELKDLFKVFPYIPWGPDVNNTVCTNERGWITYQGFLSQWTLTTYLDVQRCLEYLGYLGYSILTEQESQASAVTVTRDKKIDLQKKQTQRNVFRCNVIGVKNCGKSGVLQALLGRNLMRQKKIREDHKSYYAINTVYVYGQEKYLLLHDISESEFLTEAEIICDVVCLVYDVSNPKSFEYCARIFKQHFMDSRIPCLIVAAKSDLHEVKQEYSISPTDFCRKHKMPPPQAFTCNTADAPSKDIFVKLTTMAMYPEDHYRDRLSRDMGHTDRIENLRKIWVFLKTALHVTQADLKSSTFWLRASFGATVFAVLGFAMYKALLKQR

Miro1 isoform 3 = target: T3, Miro1 isoform 3 (Homo sapiens (endogenous, HEK293), UniProt Q8IXI2-3); experiment: as above; settings: one partner purified
T3 construct: endogenous human Miro1 isoform 3, identified by mass spectrometry (search against the Uniprot Homo sapiens database; 31 razor peptides); source: endogenous, HEK293 lysate
T3 sequence (Q8IXI2 other isoform, or with tags, fused parts or gaps): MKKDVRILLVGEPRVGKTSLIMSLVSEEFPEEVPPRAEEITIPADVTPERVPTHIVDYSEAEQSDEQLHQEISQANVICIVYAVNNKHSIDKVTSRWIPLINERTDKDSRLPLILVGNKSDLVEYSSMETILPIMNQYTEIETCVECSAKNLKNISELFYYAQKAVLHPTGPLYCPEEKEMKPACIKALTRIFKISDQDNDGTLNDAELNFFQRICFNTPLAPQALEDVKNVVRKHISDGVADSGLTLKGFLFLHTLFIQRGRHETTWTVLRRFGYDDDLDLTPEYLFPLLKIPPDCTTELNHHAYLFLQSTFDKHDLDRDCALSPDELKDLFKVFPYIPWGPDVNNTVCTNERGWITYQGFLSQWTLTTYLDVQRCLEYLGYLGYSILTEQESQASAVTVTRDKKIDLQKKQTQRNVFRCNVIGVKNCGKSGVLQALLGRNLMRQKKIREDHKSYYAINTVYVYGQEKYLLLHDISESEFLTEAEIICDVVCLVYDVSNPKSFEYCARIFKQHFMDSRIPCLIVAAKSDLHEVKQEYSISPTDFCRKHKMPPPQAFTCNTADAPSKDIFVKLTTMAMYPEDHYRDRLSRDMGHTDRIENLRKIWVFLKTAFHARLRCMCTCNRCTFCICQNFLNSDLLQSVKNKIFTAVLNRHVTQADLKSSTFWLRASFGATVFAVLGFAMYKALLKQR

binding result (eGFP-cGTPase-TMD [1]): binds
B3: Miro1-specific nanobody M189 (VHH)
VHH: EVQLVESGGGLVQPGGSLRLSCTASGFPVSSAAMSWARQSPGKELEWVSGIYTDGSADYADSLKGRFTISRDDVENTINLQMNNLKPEDTAIYYCNANFFEGSWYDYWGQGSPVTVSS
notes: Cloned into pHEN6C; also called M189-Nb; M189 nanotrap; source: E. coli, purified (IMAC, SEC)

binding result (Miro1 isoform 2): binds
binding result (Miro1 isoform 3): binds
binding result (eGFP-cGTPase-TMD [1]): binds
B5: Miro1-specific nanobody M114 (VHH)
VHH: EVQLQESGGGLVQPGGSLRLSCTASGFPVSSAAMSWARQSPGKELEWVSGIYTDGSADYADSLKGRFTISRDDVENTINLQMNSLKPEDTAVYYCKTDWWAGPSGYVAVWGQGTLVTVSS
notes: Cloned into pHEN6C; also called M114-Nb; M114 nanotrap; source: E. coli, purified (IMAC, SEC)

binding result (eGFP-cGTPase-TMD [2]): binds
B6: M114 chromobody (VHH)
VHH: B5 VHH
notes: as the VHH of m12 (M114); cloned into the plasmid described as PCNA-chromobody (Panza et al., 2015); also called M114-Cb; M114-CB; source: HeLa, transfected, in living cells

binding result (eGFP-cGTPase-TMD [2]): binds
B8: M41 chromobody (VHH)
VHH: EVQLVESGGGLVHPGGSLRISCAASGFSFNSSAMSWARQAPGKGLEWVSGIQADGTTGYAHSVKGRFNISRDNAKNIVYLQMSSLKPEDSAVYYCAKEGWSTVVFGSRDYWGQGTQVTVSS
notes: as the VHH of m10 (M41); cloned into the plasmid described as PCNA-chromobody (Panza et al., 2015); also called M41-Cb; source: HeLa, transfected, in living cells

binding result (eGFP-cGTPase-TMD [1]): binds
B9: Miro1-specific nanobody M41 (VHH)
VHH: B8 VHH
notes: Cloned into pHEN6C; also called M41-Nb; M41 nanotrap; source: E. coli, purified (IMAC, SEC)

binding result (eGFP-cGTPase-TMD [1]): binds
B10: Miro1-specific nanobody M11 (VHH)
VHH: QVQLVESGGGSVQPGGSLRLSCAASGFSFSSNVMSWARQAPGKGLEWVSGIYVDGRTHYADSVKGRFTISRDNAKNTVYLQMNSLKPEDTAVYYCAAAGDLSGYSFSPYDYDYWGQGTQVTVSS
notes: Cloned into pHEN6C; also called M11-Nb; M11 nanotrap; source: E. coli, purified (IMAC, SEC)

The remaining lines, values behind:

B1: Miro1-specific nanobody M85 (VHH)
VHH: DVQLVESGGGKVQSGGSLRLSCAASGSKLDDYSIGWFRQAPGKGREGISCITMKTGSFEYVDSVKGRFTISADNAKNTVHLQMNNLKPEDTGIYYCAALRSRGLFCVTSPYEYDLWGQGSPVTVSS
notes: Cloned into pHEN6C; also called M85-Nb; M85 nanotrap; source: E. coli, purified (IMAC, SEC)
binding result (eGFP-cGTPase-TMD [1]): binds

B2: M85 chromobody (VHH)
VHH: B1 VHH
notes: as the VHH of m11 (M85); cloned into the plasmid described as PCNA-chromobody (Panza et al., 2015); also called M85-Cb; source: HeLa, transfected, in living cells
binding result (eGFP-cGTPase-TMD [2]): binds

B4: Fbox-M114 (VHH)
VHH: B5 VHH
reduction of the GFP signal in HeLa cells coexpressing the Fbox-Nb construct and GFP-Miro1 (targeted degradation) (GFP-Miro1 (human)): 80%
decrease of the anti-Miro1 IF signal in HeLa cells 24 h after transfection of the Fbox-Nb (targeted degradation of endogenous Miro1; Fbox-NR control less than ∼4%) [3]: 30%

B7: Fbox-M41 (VHH)
VHH: B8 VHH
reduction of the GFP signal in HeLa cells coexpressing the Fbox-Nb construct and GFP-Miro1 (targeted degradation) (GFP-Miro1 (human)): 50%
decrease of the anti-Miro1 IF signal in HeLa cells 24 h after transfection of the Fbox-Nb (targeted degradation of endogenous Miro1; Fbox-NR control less than ∼4%) [3]: 16%
